Measured values published in patent US5969097A, “Human guanylin” (G. D. Searle & Co., priority 1992, dated 1999).

Molecular target: T1, intestinal guanylate cyclase (Homo sapiens, UniProt P25092)
T1 construct: host or cells: T84 human colon carcinoma cells
Assay: T84 cell bioassay: intracellular cyclic GMP levels
Assay type: cell-based
Conditions: compared with STa; T84 cells, FIG. 3a
Protocol: a) Activity in the T84 cell bioassay. As determined by analysis of the effects of the peptides on intracellular cyclic GMP levels.
Cell Culture: A cultured human colon carcinoma cell line (T84) was obtained from the American Type Culture Collection (Rockville, Md.) at passage 52. Cells were grown to confluency in 24-well culture plates with a 1:1 mixture of Ham's F12 medium and Dulbecco's modified Eagle's medium (DMEM), supplemented with 10% fetal calf serum, 100 IU/ml penicillin, and 100 μg/ml streptomycin. Cells were used at passages 54-60.
Cyclic GMP determination: Monolayers of T84 cells in 24-well plates were washed twice with 1 ml/well DMEM, then incubated at 37 C. for 10 min with 0.5 ml DMEM containing 1 mM isobutylmethylxanthine (IBMX), a cyclic nucleotide phosphodiesterase inhibitor. Agents and fractions were then added for the indicated time as described in the results section. The media was then aspirated and the reaction terminated by the addition of ice cold 0.5 ml of 0.1N HCl. Aliquots were then evaporated to dryness under nitrogen and then resuspended in 5 mM sodium acetate buffer, pH 6.4. The samples were subsequently measured for cyclic GMP by RIA as described by Steiner et al. (16).

T1 sequence (P25092 24-1073): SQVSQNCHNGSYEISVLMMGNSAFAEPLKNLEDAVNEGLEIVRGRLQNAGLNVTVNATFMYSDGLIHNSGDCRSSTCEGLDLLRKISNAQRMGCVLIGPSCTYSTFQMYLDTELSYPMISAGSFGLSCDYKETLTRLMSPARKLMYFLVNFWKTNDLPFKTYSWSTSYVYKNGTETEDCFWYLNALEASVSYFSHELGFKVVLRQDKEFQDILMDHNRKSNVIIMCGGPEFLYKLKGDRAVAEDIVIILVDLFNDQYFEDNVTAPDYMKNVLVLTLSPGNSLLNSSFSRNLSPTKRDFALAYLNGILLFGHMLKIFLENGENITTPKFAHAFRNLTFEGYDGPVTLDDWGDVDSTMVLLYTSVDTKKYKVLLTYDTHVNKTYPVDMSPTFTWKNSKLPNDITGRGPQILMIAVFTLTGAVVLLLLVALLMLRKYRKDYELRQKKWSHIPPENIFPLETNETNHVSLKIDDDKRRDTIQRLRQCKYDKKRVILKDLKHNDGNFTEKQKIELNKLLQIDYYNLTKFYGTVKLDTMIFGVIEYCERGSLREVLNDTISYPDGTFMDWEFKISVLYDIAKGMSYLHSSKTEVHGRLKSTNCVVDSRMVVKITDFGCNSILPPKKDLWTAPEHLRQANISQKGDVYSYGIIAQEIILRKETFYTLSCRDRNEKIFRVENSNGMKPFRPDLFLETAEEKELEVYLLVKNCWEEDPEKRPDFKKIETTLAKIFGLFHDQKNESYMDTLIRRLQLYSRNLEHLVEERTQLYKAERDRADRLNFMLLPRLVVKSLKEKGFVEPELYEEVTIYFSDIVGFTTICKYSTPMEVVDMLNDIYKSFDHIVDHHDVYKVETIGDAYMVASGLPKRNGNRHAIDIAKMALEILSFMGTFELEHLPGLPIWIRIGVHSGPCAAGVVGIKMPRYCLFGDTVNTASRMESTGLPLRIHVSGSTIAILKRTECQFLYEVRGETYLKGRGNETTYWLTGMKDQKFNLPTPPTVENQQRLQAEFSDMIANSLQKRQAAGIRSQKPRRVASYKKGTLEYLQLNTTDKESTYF

B1: rat guanylin: 15 amino acid rat guanylin peptide; shares 14 of 15 amino acids with human guanylin (peptide)
peptide: MNAWLLSVLCLLGALAVLVEGVTVQDGDLSFPLESVKQLKHLREVQEPTLMSHKKFALRLPKPVAPELCSQSAFPEALRPLCEKPNAEEILQRLEAIAQDPNTCEICAYAACTGC
  relative potency to activate intestinal guanylate cyclase (T84 cell cyclic GMP): about one order of magnitude less potent than STa
